# Experiment: soluble on expression in E. coli; label from the status in PepcDB or PDB records
row,Sequence,soluble on expression in E. coli
1,MQAFRAPSLATIDDVCGTRADGYDGAPLRSIPDFAVIVPMHNEEASVETLVAEIVTACQPVGQFEIVVVDDASSDRTVNAVLSLGDRYPMLRLVRHDRQGGQSAAIHSGVQAARAPVICMLDGDGQNPPDNLPALLAPLLSATATSRLGLVAGQRVGRRDTLGKRLSSRFANGLRARILKDGTRDTGCGLKAFRRDAYLALPYFDHHHRYFPALFNRDGWQVAHVDVTHRARLHGNSHYTNIGRALVGIHDLIGVVWLLRRRKRSSWAETFKTETSPLEHHHHHH,soluble
2,MKDPLLNSLIYVSRYYGLANSPEALVNGLPLSDGKLTPFLLPRAAERAGLVAKENRAELEKISSLILPAILVLKGGDSCVLNSINMETREAEVTTLESGMVPISIPLEDLLEQYTGRYFLVKKQFR,soluble
3,MGSDKIHHHHHHMSDTLLEIDNLTVDFQLPTGTVSAVKHVSFSLQPGETLALVGESGSGKSVSSTAAMRLLPELARTSGAIRFKGEDLLRATPRRMRHIRGNAISMIFQEPMTSLNPLHRIGRQIAEVLEKHRGLKGRQARTKIVELLEQVGIPDPARRIDSYPHELSGGQRQRVMIAMALACEPELLIADEPTTALDVTVQAQILALLKDLQARYGMAILFITHDLGIVRHFADRVCVMRRGELIESGPTAELFDTPRDDYTRMLIDADPRGRKTPVDPSMPVLFEAKDLQVRFTLKKRLFRASEHFEAVRGIDLTIRRGQTVGIVGESGSGKSTLGRALLRLLDSRGEIRFDGQDIAALDTAGMRPLRSRLQVVFQDPFGSLSPRMTVGEVISEGLRVHHPTLDRRQREARVIEALEDVALDPAMRNRYPHEFSGGQRQRIAIARALVLKPEFLLLDEPTSALDRSVQVTVIDLLRDLQQKHGLTYLFISHDLSVVRALADTVLVMKAGQVVEQGATEEIFANPREHYTRELMRAAFVDAA,not soluble
4,MLVSKSNGFNASAVLGSGSYNENKSSKHMELLAHSILKLICKEAASETYRGALETLQKMMSECIYQEGNAFVIMGAGEQLKRIKYEVGENNLKVFNVHFNNNHELVSSGEPDVICLSKQVWENLLIKLKLENNENVFSETKKLSNKNNADQFFECAKRNE,not soluble
5,MSDTPATRDFGLIDGRAVTGYVLSNRRGTRVCVLDLGGIVQEFSVLADGVRENLVVSFDDAASYADNPFQINKQIGRVAGRIRGAAFDINGRTYRVEANEGRNALHGGSHGLAVTRFNAVAADGRSVVLRSRLQQSADGYPNDLDLDISYRLDEDDRLTVSYRATALGDTVFDPTLHIYWRLDAGLHDAVLHIPQGGHMPADAEKLPVSTVSDDLEVFDFSRPKPLDAAVAALRRETGRAGFDDAYRVPSDIGRPAAVLQAGRRRRISIYSDRNGLVIFTAAPQDFARHDAGVYDALATEAQTLPDSLNWPEFGNIRLNKGDTREATIAYGIESLS,not soluble
6,MKHNLNAHEARVIGCLLEKQVTTPEQYPMSLNGLTLACNQKTSRDPVMELSESQVQQTLDFLLKKHLIRSQSGNRVMKYEHRFCNSEFGDLKFSPAEVAVITLLLLRGAQTPGELRTRTNRMYEFADVAETEETLKTLSLREDGPFVVRLAREPGKRESRFMPLFSGDVASSLLAAGEAEENNHTLEANPRETHSFENIALEKTALEARVAQLEQQVIQLSRRLDDVLIQLDDMKKLRVGIVGLGGIAQKAYLPILTQAQGWQLVGAFSPNQAKAQPLCDSYRMRYFSRLDTLAAASDAVFVHSSTASHFQVVHDLLQAGVHVYVDKPLAETREQSEQLIELADKQHLALMVGFNRRFAPLYQQLKQQASSPVSLRMEKHRLSSIGPHDLGFTLLDDYLHVVDTALWLGGEGARLTGGAVQTNAQGQMLYAEHHFQQGGCLITTSMHRQAGTQRESVQVISDGACYHITDMRQWQQASAGQVISQPAPGWQTTLEQRGFTGAVHHFIEAVSNQTRPQVSGEDAIVAQRMIERILQQ,not soluble
7,MGSDKIHHHHHHMSELLGLIVDARPLQAHFRIPHTSLLLDTYPFPPKTTAVGMLAGCMGLGEEGFKKLLEKIKYGVIIEDPGEKIEEVSVIYKNPYSPSYPITRVSLYKPRFRMFFAGEERVIEEAYEGLLDPKFVPYMGDSESLFYPGKKRYVEVVDVQEGKEDILRSVIPEVKFKEFVPLRRKVLVPKVYEAPVKFTYKGKSRRAVYGRFIAFSGGYVKLEKKIDVLLFDGEPIATF,not soluble
8,MGSDKIHHHHHHLCLIKPGLKVLEIGCGTGRVLKPLLESGASVVGVDISHEMLALAHNKLASFCDSGALRLLNHNFVYSSIPERFDRVFVTFYTFNYLLSYENALSFLKNIYSSMNDGAVLLMDMFFPSIYHNPAIEGKWQQRYLNLGAKQIRLSDRRTMRGPMEKREQVFEEDGGRQEITTLRRFYDKNETARLLREAGFSSVKFTDVYDSTLFHQLELLEATDRGFLVMGRREAGGGEG,not soluble
9,MAAKPVLYYFNGRGKMESIRWLLAAAGVEFEEVFLETREQYEKLLQSGILMFQQVPMVEIDGMKLVQTRAILNYIAGKYNLYGKDLKERALIDMYVGGTDDLMGFLLSFPFLSAEDKVKQCAFVVEKATSRYFPAYEKVLKDHGQDFLVGNRLSWADIHLLEAILMVEEKKSDALSGFPLLQAFKKRISSIPTIKKFLAPGSKRKPISDDKYVETVRRVLRMYYDVKPH,soluble
10,GPLGSGTWDCDTCLVQNKPEAVKCVACETPKPG,soluble
11,MGSSHHHHHHSSGLVPRGSHMKIAFVIRKDCSRCARIAESIIDLLPKDWEIIYDHEAAKFLNSKGLDISQISADVIITIGGDGTVLRTLQMAKGPVLGINMGGLGFLTELEVDEVGSAIFKLIKGQYRITESMKLKVEINGDRVEDCTNEAVVHTERIARIRQFKIYIDGHFLSTMKSDGIIVATPIGSSSYSSSAGGPLLLPTLKGMVISYLAPYSSRLKPVVVTSDSTVEIKIAGRDQECILILDGQREYTVRSGDTVRISRSENSARFLSFRESVYDRIRDKVIKHVVN,soluble
12,MEDISDPEVILEYGVYPAFIKGYTQLKANIEEALLEMSNSGQALDIYQAVQTLNAENMLLNYYESLPFYLNRQSILANMTKALKDAHIREAMAHYKLGEFAHYQDTMLDMVERTIKTF,not soluble
13,MALELSDIRQQITQIDRSLLKLLSERHRLAFDVVRSKEISQKSLRDVEREQQLLQELVQFAENENYQLEAQYITSIFQKIIEDSVLTQQVYLQNKLNEQRNQNLHIAFLGKRGSYSNLAARNYAARYQKQFVELGCQSFEQVFEKVQTGEADFGVLPLENTTSGAINEVYDLLQHTDLSLVGELAYPIKHCVLVNDKTDLNQIDTLYSHPQVIQQCSQFIHSLDRVHIEYCESSSHAMQLVASLNKPNIAALGNEDGGKLYGLSVLKTNIANQENNITRFIVVAKEPREVSSQIPTKTLLLMTTSQQAGALVDALLVFKKHQINMTKLESRPIYGKPWEEMFYLEIEANIHHPDTKQALEELKNYSNYLKILGCYPSEIVKPVSV,not soluble
14,ASELNIYSARHYNADFEIIKKFEEKTGIKVNHTQAKASELIKRLSLEGSNSPADIFITADISNLTEAKNLGLLSPVSSKYLEEFIPAHLRDKDKEWFAITKRARIIAYNKNTNIDISKMKNYEDLAKAEFKGEIVMRSATAPYSKTLLASIIANDGNKEAKAWAKGVLENLATNPKGGDRDQARQVFAGEAKFAVMNTYYIGLLKNSKNPKDVEVGNSLGIIFPNQDNRGTHINISGIAMTKSSKNQDAAKKFMEFMLSPEIQKILTDSNYEFPIRNDVELSQTVKDFGTFKEDQIPVSKIAENIKEAVKIYDEVGFRIEGR,soluble
15,MGSDKIHHHHHHVTGSDTQLYPPMSTYLENHNIRYFNSFSAENLKSATPDLVVVGNAISRGNPDLEYALDQHMELISMPQLVRRELIGRHTSIVVAGTHGKTTTTSLVAWLLEAGGLLPGFLIGGIPENFGDGCRPSGLSEPGFFVTEGDEYDSAFFDKRSKFLHYRPDIAIINNVEFDHADIFDSLDDIKKSFRLLVNLVPSNGLLIVNADDPNSMEVSAKAFCRVETFGLNGNAEWTAADIATDTDGTSFTVVRDSEAIGRVKVPLFGNYNVMNALAATAAAIRAGVSFESVTRGLCSFKRPKRRMELVGEYAGGITLIEDFAHHPTAIRLTLGAIAEHYPGRRIIACFEPRSNTTSRNIFQHELSECFGDAAIVVLGKVNRPERYAPEERLDAALLCRELKANGKRVFAAGSENYPEDIVRFIEAEQQPGDVVVLLSNGSFSGLKEMLAESFQKNS,not soluble
16,MKAYWIAHVDVTDPQQYSEYTQRAPAAFQLFGGKFLARGGRSEAIEGRATPQRTVIIEFESYEQAVACYHSPQYQNAMSHRQGAAKAEIVIVEGQP,not soluble
17,MAADRNTGHTEEDKLDVLKSTQTVIHKALEKLGYPEEVYELLKEPMRLLTVKIPVRMDDGSVKIFTGYRAHNDSVGPTKGGIRFHPNVTEKEVKALSIWMSLKCGIIDLPYGGGKGGIVCDPRDMSFRELERLSRGYVRAISQIVGPTKDVPAPDVFTNSQIMAWMMDEYSRIDEFNSPGFITGKPLVLGGSHGRESATAKGVTICIKEAAKKRGIDIKGARVVVQGFGNAGSYLAKFMHDAGAKVVGISDAYGGLYDPEGLDIDYLLDRRDSFGTVTKLFNDTITNQELLELDCDILVPAAIENQITEENAHNIRAKIVVEAANGPTTLEGTKILSDRDILLVPDVLASAGGVTVSYFEWVQNNQGFYWSEEEVEEKLEKMMVKSFNNIYEMANNRRIDMRLAAYMVGVRKMAEASRFRGWI,soluble
18,MPISEPTWAELPFLFKSAVVELLPYKNRCCLRKCSKSDQFLVDSTPNHLHDVAIHTCENYTVFTYSDSPDTVFTLKYFKNIGENDLKIEYSESPVLFVPGKNQKFIFKTSIHVENLASEADDVDFALDDFKLLLNRLNCKKSIINMIPNQYNPIAHPDRTIEFRQRLLDLMTSSFPKKSIKSKSLVIHWHQETQEIAEILQVFHTKTLKNLEFHDRNATWHMAPIIGTEQWKGARSVLLEHLSDVKIEELKDFNEIQMHVRDSGEQELWTVIQNFIRKNLHGSSFHFTYRQAEPNVDRILATFNVPPRDEPITARTRLRSVLGSRFIHTQRFQMPSTDLILVVMISEKEVMGTVCHVDQVNVEAKVERGLLR,not soluble
19,MAHHHHHHMRSLPNIIVTGVPGVGKTTLCEELVEILNKQLKENQQAESASQMKHLNLSKVIKEERLYEEFDDQLDASIYSSDMVNEKLEKLKLENGGYIIDFHDVDFLDEKELIDHIFLLTASTNKLYERLEKRNYSEEKIKNNIECEIFQVIKEDILTSYNDPSIFDELENNDMEQYESNLQLIKGWVLSWVKNGVAMPR,soluble
20,SNPLCSRCNRVVYPTEKVNCLDKYWHKGCFSCEVCKMTLNMKNYKGFEKRPYCNAHYPKTSFTSVADTPENLRLKQQSKMQSQVLYKEEFEKNKGKGFSVVADTPELQRIKKTQDQISNIKYHEDFEKSRSGGDTPLPLTPQLNTPPAYPSSAASQNYHYEPEPVRPAAAAPPPSSGKRYRAVYDYTAADEDEVSFMDGDMIVDVQQIDEGWMYGRVERTGQQGMLPANYVEAM,soluble
21,MGSDKIHHHHHHMRDTWRWTMTQNKRSGNRRTPTPELDSASLVPPTVPSVVDDVEGGKPNTVEFRATYSPLRVEFHPWANSHPEIDEEYLFLYWNDVLVDKKTFSKPIEPEELFILVPVDKLIEGPHRLHYEVTLYSDTHVSSRPLDIYIDKTPPLLPADDRLMLPDYVIREGVTEEYLAANGDKLVCTVPSFIGAEPGDVVKWFYSENGAGQEMVDMMTLTQEHIETLGPLGTSKPLELTFPGAFIRQSGNGTRYVRYEVQDRAGTQPQRALAVALESDLSLAPRELPPPRIKEAKGSDYQSTLEPGNAFDGVTFVIPDDADIRPNETVTVFWGQPGTLGGYSTSTPISPGALEYLIPSQYVPPHMSGRVELYYQIDKPDVPPSPSHYVTVRKIEGLPIVQCSDIRNRALNLRTLGESTTFTLESWPFRHTSQFVNAWIDGVESGNVTREIRLPIATALPVPSETGVMVLGSVTKTELLRLAINYQFRVSVEVSFDDKLSWLKFPDAAAQLEDKP,not soluble

# Source: the DeepSol protein solubility set
